What was measured:
[1] = target: T1, recombinant human CD16a V158 (human, UniProt P08637 17-208, biotinylated); assay: SPR
T1 construct: also called FcγRIIIa V158; hCD16aV

[2] = target: T2, recombinant human CD16b (human, UniProt O75015 17-200, limits assumed, biotinylated); assay: SPR
T2 construct: also called FcγRIIIb

[3] = target: T3, recombinant cynomolgus CLEC12A-His (cynomolgus monkey, UniProt A0A2K5WXQ4 71-271); assay: SPR 37C
T3 construct: also called cCLEC12A-His; cCLEC12A
T3 sequence: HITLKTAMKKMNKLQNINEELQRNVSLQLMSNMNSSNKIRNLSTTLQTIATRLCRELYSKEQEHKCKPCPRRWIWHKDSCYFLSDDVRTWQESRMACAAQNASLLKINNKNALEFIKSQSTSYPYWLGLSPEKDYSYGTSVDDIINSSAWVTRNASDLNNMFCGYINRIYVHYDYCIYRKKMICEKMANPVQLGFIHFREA

[4] = target: T4, recombinant human CLEC12A-His (human, UniProt Q5QGZ9 65-265); assay: SPR, CLEC12A binding
T4 construct: also called hCLEC12A-His; hCLEC12A
T4 sequence: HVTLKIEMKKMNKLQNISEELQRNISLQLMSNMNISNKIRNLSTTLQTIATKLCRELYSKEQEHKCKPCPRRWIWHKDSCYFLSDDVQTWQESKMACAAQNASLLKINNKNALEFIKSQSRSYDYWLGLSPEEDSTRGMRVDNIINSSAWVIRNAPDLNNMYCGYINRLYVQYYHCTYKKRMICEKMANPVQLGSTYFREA

[5] = target: T5, human CLEC12A expressed on cells (human, UniProt Q5QGZ9 1-265); assay: flow cytometry on CLEC12A+ PL-21 AML cells
T5 construct: Transduced isogenic cells or endogenous expression on AML cells; also called RMA-hCLEC12A; Ba/F3-hCLEC12A
T5 sequence: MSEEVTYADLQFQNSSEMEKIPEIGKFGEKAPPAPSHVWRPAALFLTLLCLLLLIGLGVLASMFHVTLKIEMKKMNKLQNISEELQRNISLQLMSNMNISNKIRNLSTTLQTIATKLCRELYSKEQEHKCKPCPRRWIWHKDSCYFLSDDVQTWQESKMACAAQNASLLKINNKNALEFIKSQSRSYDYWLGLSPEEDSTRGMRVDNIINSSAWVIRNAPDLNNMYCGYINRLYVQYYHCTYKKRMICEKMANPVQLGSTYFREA

[6] = target: T5, human CLEC12A expressed on cells; assay: flow cytometry on PL-21 cells, fold over background
Procedure: The cells were then incubated with a fluorophore conjugated anti-human IgG secondary antibody and were analyzed by flow cytometry. The mean fluorescence intensity (MFI) values were normalized to secondary antibody only controls to obtain fold over background (FOB) values.
100,000 cells were seeded per well into a 96-well plate for FACS staining. Cells were washed with PBS. Cells were incubated in a 1:2000 dilution of live/dead dye in PBS for 15 minutes, then washed with FACS buffer. TriNKETs or mAbs were diluted into FACS buffer, and 50 μl containing diluted TriNKET or mAb was added to cells. Cells were incubated on ice for 20 minutes. After the incubation, cells were washed with FACS buffer. Anti-human IgG-Fc secondary antibody was diluted into FACS buffer, and 50 μl was added per well for detection of the bound TriNKETs or mAbs. Cells were incubated for 20 minutes on ice, then washed with FACS buffer. 50 μl of fixation buffer was added to each well, and cells were incubated for 10 minutes at room temperature. […] Within the live gate, the mean fluorescence intensity (MFI) of each sample and the secondary-only control was calculated. Fold-over-background (FOB) was calculated as the ratio of test article MFI over secondary-only background MFI. […]

[7] = target: T4, recombinant human CLEC12A-His; assay: SPR
[8] = target: T6, de-sialylated hCLEC12A (human, UniProt Q5QGZ9 65-265, terminal sialic acids removed (neuraminidase)); assay: SPR
T6 construct: also called De-sialylated CLEC12A
T6 sequence: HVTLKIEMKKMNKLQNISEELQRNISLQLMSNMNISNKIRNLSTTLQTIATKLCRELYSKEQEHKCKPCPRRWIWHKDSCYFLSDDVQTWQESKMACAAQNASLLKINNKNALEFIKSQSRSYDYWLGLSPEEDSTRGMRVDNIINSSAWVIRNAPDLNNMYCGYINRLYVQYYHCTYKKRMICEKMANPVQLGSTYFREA

[9] = target: T7, de-glycosylated hCLEC12A (human, UniProt Q5QGZ9 65-265, N-linked glycans removed (PNGase F)); assay: SPR
T7 construct: also called PNGase-treated hCLEC12A; De-glycosylated CLEC12A
T7 sequence: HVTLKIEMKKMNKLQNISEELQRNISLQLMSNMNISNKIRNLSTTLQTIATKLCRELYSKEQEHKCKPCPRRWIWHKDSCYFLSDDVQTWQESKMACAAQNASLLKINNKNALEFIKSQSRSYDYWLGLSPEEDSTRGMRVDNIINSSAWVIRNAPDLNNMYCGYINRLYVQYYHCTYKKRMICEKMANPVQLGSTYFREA

[10] = target: T4, recombinant human CLEC12A-His; assay: SPR, purified murine mAb
[11] = target: T5, human CLEC12A expressed on cells; assay: flow cytometry, PL21 cells
Procedure: The ability of the eight purified subcloned mAbs to bind to CLEC12A expressing cells was assessed by FACS analysis with human CLEC12A-positive PL21 cancer cell line.

[12] = target: T4, recombinant human CLEC12A-His; assay: SPR screening, fully purified mAb
[13] = target: T4, recombinant human CLEC12A-His; assay: SPR, CLEC12A binding; remark: listed apart in the source
[14] = target: T8, cynomolgus CLEC12A expressed on RMA cells (cynomolgus monkey, UniProt A0A2K5WXQ4 7-271); assay: flow cytometry, RMA-cCLEC12A, hybridoma supernatant
T8 construct: whole, on cells; also called cCLEC12A isogenic cell line
T8 sequence: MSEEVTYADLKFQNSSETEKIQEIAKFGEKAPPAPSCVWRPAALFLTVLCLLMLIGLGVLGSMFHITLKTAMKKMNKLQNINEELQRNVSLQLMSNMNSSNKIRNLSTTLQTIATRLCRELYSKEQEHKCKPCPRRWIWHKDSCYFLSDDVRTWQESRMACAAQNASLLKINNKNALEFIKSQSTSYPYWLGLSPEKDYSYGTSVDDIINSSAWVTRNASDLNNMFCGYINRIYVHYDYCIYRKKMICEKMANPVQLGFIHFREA
Procedure: Briefly, RMA cells were transducted with a retroviral vector encoding cCLEC12A or hCLEC12A. […] 100,000 RMA, REH or SEM cells were added per well of a 96 well round bottom plate. Cells were spun down and the pellet was gently dissociated by vortexing. 100 μL of Zombie live/dead dye (PBS+1:2000 dye) were added per well and incubated in the dark at room temperature for 20 minutes. Cells were washed with 200 μL of FACS buffer (PBS+2% FBS). 50 μL of hybridoma supernatants were added to the washed cells and the mixtures were incubated for 30 minutes on ice in the dark. Cells were washed twice with FACS buffer and then 50 μL of anti-mouse Fc-PE secondary reagent (1:200 dilution) were added and incubated for 20 minutes on ice in the dark. After the incubation, the cells were washed and then fixed with 50 μL of 4% paraformaldehyde for 15 minutes on ice. The fixed cells were washed with FACS buffer, resuspended in 200 μL FACS buffer, and stored at 4° C. until ready for acquisition. The samples of cells resuspended in FACS buffer were run on BD FACSCelesta equipped with an HTS (high throughput sampler) to determine the binding affinities of the antibodies to isogenic RMA cells expressing CLEC12A and the U937 AML cancer cell line.

[15] = target: T5, human CLEC12A expressed on cells; assay: flow cytometry (gMFI) on CLEC12A+ PL-21 AML cells
[16] = target: T3, recombinant cynomolgus CLEC12A-His; assay: SPR, purified murine subclone mAb and Cyno CLEC12A-His
[17] = target: T3, recombinant cynomolgus CLEC12A-His; assay: as above; remark: listed apart in the source
[18] = target: T4, recombinant human CLEC12A-His; assay: SPR; sensorgrams of a CLEC12A concentration series with fit overlays (response up to about 18, time axis 0 to about 900)
[19] = target: T5, human CLEC12A expressed on cells; assay: flow cytometry (MFI) on CLEC12A+ PL-21 AML cells, about 0.2 to 130 nM, plateau about 250 MFI; the molecule is assigned by panel order and legend paragraph 296

T2 sequence (O75015 17-200 limits assumed): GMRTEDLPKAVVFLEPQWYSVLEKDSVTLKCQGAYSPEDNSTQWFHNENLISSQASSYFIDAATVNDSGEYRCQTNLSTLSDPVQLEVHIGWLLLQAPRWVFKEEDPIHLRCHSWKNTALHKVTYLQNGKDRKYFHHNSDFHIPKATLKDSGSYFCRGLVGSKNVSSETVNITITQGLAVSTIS
T1 sequence (P08637 17-208 F176V limits assumed): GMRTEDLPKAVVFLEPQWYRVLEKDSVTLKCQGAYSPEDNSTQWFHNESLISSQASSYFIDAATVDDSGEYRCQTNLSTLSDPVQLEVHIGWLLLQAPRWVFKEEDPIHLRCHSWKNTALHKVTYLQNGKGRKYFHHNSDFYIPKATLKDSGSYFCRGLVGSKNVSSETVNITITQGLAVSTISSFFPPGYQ

B1: AB0089 TriNKET (other)
chain: QLQLQESGPGLVKPSETLSLTCTVSGFSLTNYGLHWIRQPPGKCLEWIGVIWVGGATDYNPSLKSRVTISVDTSKNQFSLKLSSVQAADTAVYYCAKGDYGDTLDYWGQGTLVTVSSGGGGSGGGGSGGGGSGGGGSDIQMTQSPSSLSASVGDRVTITCHASQNINFWLSWYQQKPGKAPKLLIYEASNLHTGVPSRFSGSGSGTDFTLTISSLQPEDFATYYCQQSHSYPLTFGCGTKLEIKGSDKTHTCPPCPAPELLGGPSVFLFPPKPKDTLMISRTPEVTCVVVDVSHEDPEVKFNWYVDGVEVHNAKTKPREEQYNSTYRVVSVLTVLHQDWLNGKEYKCKVSNKALPAPIEKTISKAKGQPREPRVYTLPPCRDELTKNQVSLTCLVKGFYPSDIAVEWESNGQPENNYKTTPPVLVSDGSFTLYSKLTVDKSRWQQGNVFSCSVMHEALHNHYTQKSLSLSPG
heavy: EVQLVESGGGLVKPGGSLRLSCAASGFTFSSYSMNWVRQAPGKGLEWVSSISSSSSYIYYADSVKGRFTISRDNAKNSLYLQMNSLRAEDTAVYYCARGAPIGAAAGWFDPWGQGTLVTVSSASTKGPSVFPLAPSSKSTSGGTAALGCLVKDYFPEPVTVSWNSGALTSGVHTFPAVLQSSGLYSLSSVVTVPSSSLGTQTYICNVNHKPSNTKVDKKVEPKSCDKTHTCPPCPAPELLGGPSVFLFPPKPKDTLMISRTPEVTCVVVDVSHEDPEVKFNWYVDGVEVHNAKTKPREEQYNSTYRVVSVLTVLHQDWLNGKEYKCKVSNKALPAPIEKTISKAKGQPREPQVCTLPPSRDELTENQVSLTCLVKGFYPSDIAVEWESNGQPENNYKTTPPVLDSDGSFFLYSWLTVDKSRWQQGNVFSCSVMHEALHNHYTQKSLSLSPG
light: DIQMTQSPSSVSASVGDRVTITCRASQGISSWLAWYQQKPGKAPKLLIYAASSLQSGVPSRFSGSGSGTDFTLTISSLQPEDFATYYCQQGVSFPRTFGGGTKVEIKRTVAAPSVFIFPPSDEQLKSGTASVVCLLNNFYPREAKVQWKVDNALQSGNSQESVTEQDSKDSTYSLSSTLTLSKADYEKHKVYACEVTHQGLSSPVTKSFNRGEC
For B1, the “fold difference in affinity vs trastuzumab” value [1] was 3.8 fold, the “fold difference in affinity vs trastuzumab” value [2] was 2.3 fold and the binding result [3] was “no binding (tested: 100 nM)”. For the same binder, the Kd [4] was 0.8 nM, the EC50 [5] was 0.45 nM and the “EC50 (read off the curve)” value [6] was ~0.5 nM.

B2: 16B8.C8 (antibody, V domains shown)
VH: EVQLQESGPGLVQPSQSLSITCTVSGFSLTNYGLHWVRQSPGKGLEWLGVIWSGGKTDYNTPFKSRLSISKDISKNQVFFKMNSLQPNDTAIYFCAKYDYDDSLDYWGQGTSVTVSS
VL: DIQMNQSPSSLSASLGDTIAITCHASQNINFWLSWYQQKPGNIPKLLIYEASNLHTGVPSRFSGSGSGTRFTLTISSLQPEDIATYYCQQSHSYPLTFGQGTKLEIK
notes: Murine mAb; also called 16B08; m16B8.C8
B2 gave a Kd [7] of 0.012 nM, a koff [7] of 4.7e-05 s⁻¹ and a kon [7] of 4.05e+06 M⁻¹ s⁻¹. The Kd [8] was 0.007 nM, the koff [8] was 3.62e-05 s⁻¹ and the kon [8] was 5.25e+06 M⁻¹ s⁻¹. It also gave a Kd [9] of 0.011 nM, a koff [9] of 4.45e-05 s⁻¹ and a kon [9] of 4.26e+06 M⁻¹ s⁻¹. The Kd [10] was 0.01 nM, the koff [10] was 4.44e-05 s⁻¹ and the kon [10] was 4.05e+06 M⁻¹ s⁻¹. The EC50 [11] was 0.18 nM, the “Max MFI” value [11] was 300 MFI and the Kd [12] was 0.008 nM. The koff [12] was 2.35e-05 s⁻¹, the kon [12] was 3.03e+06 M⁻¹ s⁻¹ and the Kd [13] was ≤ 0.011 nM. For the same binder, the binding result [14] was “no binding”, the EC50 [15] was 0.2 nM and the binding result [16] was “no binding”.

B3: 9F11.B7 (antibody, V domains shown)
VH: EVQLQESGGGLVQPGGSRKLSCAASGFTFNSFGMHWVRQAPEKGLEWVAFISSGSTSIYYANTVKGRFTISRDNPKNTLFLQMTSLRSEDTAMYYCARDGYPTGGAMDYWGQGTSVTVSS
VL: DIKMTQSPSSMYASLGERVTITCKASQDIYNYLSWFQLKPGKSPRPLIYRANILVSGVPSKFSGSGSGQDYSLTINSLEYEDLGIYYCLQFDAFPFTFGSGTKLEIK
notes: Murine mAb
Work on B3 yielded a Kd [10] of 1.4 nM, a koff [10] of 0.00157 s⁻¹ and a kon [10] of 1.14e+06 M⁻¹ s⁻¹. For the same binder, the EC50 [11] was 0.56 nM, the “Max MFI” value [11] was 217 MFI and the binding result [14] was “no binding”. For the same binder, the binding result [17] was “no binding”, the Kd [18] was 1.1 nM and the EC50 [19] was 0.5 nM.
